The results in this text go back to the nanobody polyreactivity screen of Harvey et al. (2022).

The data set in a line: yeast display, Sf9 membrane polyspecificity reagent, FACS + sequencing; frameworks hold sequencing errors. The method in brief:
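After 36–48 hours of galactose induction, yeast (Saccharomyces cerevisiae BJ5465) displaying a synthetic nanobody library were stained at 4 °C for 1 hour with 10% biotinylated, detergent-solubilized Sf9 membrane reagent. Streptavidin microbeads enriched the stained cells before FACS sorting into low and high (top ~1%) gates on anti-HA and streptavidin fluorescence. Each clone's polyreactivity label reflects its gate of origin.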
As to “QVQLVESGGGLVQAGGSLRLSCAASGSIFYVNTMGWYRQAPGKERELVAVIDYGGDSTYYADSVKGRFTISRDNAKNTVFLQMNSLKPEDTAVYYCAADAYESGNWEANGYWGQGTEVTVSS”, the “polyreactivity (PSR sort gate)” value is “low polyreactivity”.
“QVQLVESGGGLVQAGGSLRLSCAASGSIFYVYAMGWYRQAPGKERELVAAISWRGGSTYYADSVKGRFTISRDIAKITVYLQMNSLKPEDTAVYYCNADWSFWGQGTQVTVSS”: the “polyreactivity (PSR sort gate)” value was “high polyreactivity”.
As for “QVQLVESGGGLVQAGGSLRLSCAASGSIFYVYAMGWYRQAPGKERELVAAITNYADSVMGRFTISRDNAKNTVYLQMNSLKPEDTAVYYCAADWWRVEMDYWGLGTQVTVSS”, the “polyreactivity (PSR sort gate)” value was “low polyreactivity”.
For the sequence “QVQLVESGGGLVQAGGSLRLSCAASGSIFYVYAMGWYRQAPGKERELVAAITSSGDTTYYADSVKGRFTISRDNAKNTVYLQMNSLKPEDTAVYYCAKVFGPTDYLTGTFKGDYWGQGTQVTVSS”, the “polyreactivity (PSR sort gate)” value is on record as “low polyreactivity”.
For “QVQLVESGGGLVQAGGSLRLSCAASGSIFYVYAMGWYRQAPGKERELVAAITWIDGSTYYADSVKGRFTISRDNAKNTVYLQMNSLKPEDTAVYYCAAGGYFYSFYYWGQGTQVTVSS”, the “polyreactivity (PSR sort gate)” value is “low polyreactivity”.
For the sequence “QVQLVESGGGLVQAGGSLRLSCAASGSIFYVYAMGWYRQAPGKERELVADITTRDGDTYYADSVKRRFTISRDNAKNTVYLQMNSLKPEDTAVYYCAADLNAYPLRAYDYWGQGTQVTVSS”, the “polyreactivity (PSR sort gate)” value is given as “low polyreactivity”.
“QVQLVESGGGLVQAGGSLRLSCAASGSIFYVYAMGWYRQAPGKVRELVAAITSSGTTNYADSVKGSFTISRDNAKNTVYLKMNSLKPEDTAVDSCAADPDSGQVPFDYLGQGTQVTVSS”: the “polyreactivity (PSR sort gate)” value is “low polyreactivity”.
The same measure for “QVQLVESGGGLVQAGGSLRLSCAASGSIFYVYAMGWYRQAPGKVRELVATISSSAGSTYYADSVKGRFTISRDNAKNTVYLQMNSLKPEDTAVYYCIADSFLSWVYRYVYYGSAYWGQGSQVTVSS”: “low polyreactivity”; for “QVQLVESGGGLVQAGGSLRLSCAASGSIFYVYAMGWYRQAPGNERELVAVIRRGGSTKYADSVKGRFTISRDNAKNTVYLQMNSLKPEDTAVYYCNVVGYAYGWQYDYWGQGTQVTVSS”: “high polyreactivity”.
For the sequence “QVQLVESGGGLVQAGGSLRLSCAASGSIFYWNAMGWYRQAPGKDREFVAAISRSGGSTYYADSVKGRFTISRDNGKNTVYLQMYSLKPEDTAVYFCAADVFYFTYDYWGQCTQVTVSS”, the “polyreactivity (PSR sort gate)” value was “low polyreactivity”.
For the sequence “QVQLVESGGGLVQAGGSLRLSCAASGSIFYWNAMGWYRQAPGKERELVAAISYNGGSTYYADSVKGRFTISRDNAKNTVYLQMNSLKPEDTAVYYCARLDSAAEPRQYDYWGQGTQVTVSS”, the “polyreactivity (PSR sort gate)” value is listed as “high polyreactivity”.
With “QVQLVESGGGLVQAGGSLRLSCAASGSIFYYAMGWYRQAPGKERELVAAITWRGGRTYYADSVKGRFTISRDNAKNTVYLQMNSLKPEDTAVYYCNAVAPGKYNHWGQGTQVTVSS”, the “polyreactivity (PSR sort gate)” value is reported as “high polyreactivity”.
In the case of “QVQLVESGGGLVQAGGSLRLSCAASGSIFYYNAMGWNRQAPGKERELVAASTTRGGSTYYADSVKGRFTISRDNAKNTVYLQMYSLKPVDTEVYYCARSSRGKLDYWGQGTQVTVSS”, the “polyreactivity (PSR sort gate)” value is listed as “low polyreactivity”.
For the sequence “QVQLVESGGGLVQAGGSLRLSCAASGSIFYYNAMGWSRQAPGKERELVAAIRSTGSSNDADSVKGRFTISRDNAKNTVYLQMNSLKPEDTAVYYCAADQYGRSRDYGYGYWGHGTQVTVSS”, the “polyreactivity (PSR sort gate)” value is “low polyreactivity”.
As for “QVQLVESGGGLVQAGGSLRLSCAASGSIFYYNAMGWYIQAPGKEREFVAAISSSGGSTYYADSVMGRFTISRDNAKNNVYLQMYRLKPEDTAVYYCAAKLRHWAHHTKYDYWGQGTQLTVSS”, the entry is “low polyreactivity”.
For the sequence “QVQLVESGGGLVQAGGSLRLSCAASGSIFYYNTMGWYRQAPGKERELVAAISRSGTSTFYADSVKGRFTISRDYAKNTVYLQMNSLKPEDTAVYYCNAESLGWYRLYTVDYWGQGTQVTVSS”, the “polyreactivity (PSR sort gate)” value is “low polyreactivity”.
Take “QVQLVESGGGLVQAGGSLRLSCAASGSIFYYYAMGWYRPAPGKERELVAAINSSGGNTYYADSVKGRFTISRDNAKNTVYLQMNSLKPEDTAVYYCAAASRSTNYNYWGQGTQVTVSS”: the “polyreactivity (PSR sort gate)” value is recorded as “high polyreactivity”.
Consider “QVQLVESGGGLVQAGGSLRLSCAASGSIFYYYAMGWYRQAPGKERELVAAINSGVSTYYADSVKGRFTISRDNAKNTVYLQMNSLKPEDTAVYYCAAPGHNLYGSWFSWTPDTYDYWGQGTQVTVSS”, for which the “polyreactivity (PSR sort gate)” value was “low polyreactivity”.
Take “QVQLVESGGGLVQAGGSLRLSCAASGSIFYYYAMGWYRQAPGKERELVAAINSGVSTYYADSVKGRFTISRDNAKNTVYLQMNSLKPEDTAVYYCDATGHNLYGSWFSWTPDTYDYWGQGTQVTVSS”: the “polyreactivity (PSR sort gate)” value is listed as “low polyreactivity”.
On to “QVQLVESGGGLVQAGGSLRLSCAASGSIFYYYAMGWYRQAPGKERELVAAISKSGGSTYADSVKGRFTISRDNAKNTVYLQMNSLKPEDTAVYYCAATYYYSWYAFNYWGQGTQVTVSS”, for which the “polyreactivity (PSR sort gate)” value was “low polyreactivity”.
As for “QVQLVESGGGLVQAGGSLRLSCAASGSIFYYYTMGWYRQAPGKERELVAAITWSGGRTYYADSVKGRFTISRDNAKNTVYLQMNSLKPEDTAVYYCNVDPYYGGIGDYWGQGTQVTVSS”, the entry is “high polyreactivity”; as for “QVQLVESGGGLVQAGGSLRLSCAASGSIIAANAMGWYRQAPGKERELVAAITFDSGSTHYADSVKGRFTISRDNAKNTFYLQMNSLKPEDTAVYYCAVRDFNSDYDDWGQGTQVTVSS”, “low polyreactivity”; as for “QVQLVESGGGLVQAGGSLRLSCAASGSIIAGYTMGWYRQAPGKERELVAGIRRGGSTNYADSVKGRFTISRDNAKNTVYLQMNSLKPEDTAVYYCAAYYRLDYDYWGQGTQVTVSS”, “high polyreactivity”.
As for “QVQLVESGGGLVQAGGSLRLSCAASGSIIARYAMGSYRQAPGKERELVATITRGGSTNYADSVKGRFTISRDNAKNTVYLQMNSLKPEDTAVYYCARTSYGRLDYWGQGTQVTVSS”, the entry is “low polyreactivity”.
As to “QVQLVESGGGLVQAGGSLRLSCAASGSIIDTYAMGWYRQAPGKERELVASWSGGSTYYADSVKGRFTISRDNAKNTVYLQMNSLKPEDTAVYYCAKDYYVQPPGTRDDYWGQGTQVTVSS”, the “polyreactivity (PSR sort gate)” value is given as “low polyreactivity”.
Consider “QVQLVESGGGLVQAGGSLRLSCAASGSIIDYYARGWYRQAPGKERELVAAISDSGSTYYADSVKGRFTISRDNAKNTVYLQMNSLKPEDTAVYYCAAVLWSPYRSEPLDTYEYWGQGTQVNVSS”, for which the “polyreactivity (PSR sort gate)” value is reported as “low polyreactivity”.
Consider “QVQLVESGGGLVQAGGSLRLSCAASGSIIFVNAMGWYRQAPGKERELVADISSGGSTNYADSVKGRFTISRDNAKNTVYLLMNSLKPEDTAVYYCNTDEPPIYERFPYDYWGQGTQVNVSS”, for which the “polyreactivity (PSR sort gate)” value is “low polyreactivity”.
Consider “QVQLVESGGGLVQAGGSLRLSCAASGSIIGRNAMGWYRQAPGQEREMVAAISTRGGRTYYADSVKGRFTISRDNAKNNDYLQMNSLKPEDTAVYYCAAVGPYRWYDYWGQGTQVTVSS”, for which the “polyreactivity (PSR sort gate)” value was “high polyreactivity”.
As to “QVQLVESGGGLVQAGGSLRLSCAASGSIIGRYAMGWYRQAPGKERELVAAISKNGGSRYYADSVKGRFTISRDNAKNTVYLQMNSLKPEDTAVYYCNTVRYSCNYRDQEGDYWGQGTQVTVSS”, the “polyreactivity (PSR sort gate)” value was “high polyreactivity”.
Take “QVQLVESGGGLVQAGGSLRLSCAASGSIIGTNVMGWYRQAPGKERELVASISYRDGTTYYADSVKGRFTISRDNAKNTLYLQMNSLKPEDTAVYYCAVANYYSYYWGQGTQVTVSS”: the “polyreactivity (PSR sort gate)” value is given as “low polyreactivity”.
As for “QVQLVESGGGLVQAGGSLRLSCAASGSIIHSYAMGWYRQAPGKERELVAAISRNGGSTYYADSVKGRFTISRDNAKITVYLQMNSLKPEDTAVYYCAKTYSQTWRYGYWGQGTQVTVSS”, the entry is “high polyreactivity”; as for “QVQLVESGGGLVQAGGSLRLSCAASGSIIHYTMGWYRQAPGKERELVAAISKSGGSTYYADSVKGRFTISRDNAKNTVYLQMNSLKPEDTAVYYCAAVGYYAWTFGYDYWGQGTQVTVSS”, “high polyreactivity”.
Turning to “QVQLVESGGGLVQAGGSLRLSCAASGSIIIGNTMGWYRQAPGKERELVATIRRSGSRTYYADSVKGRFTISRDNAKNTVYLQMNSLKPEDTAVYYCAADRLRTSGYKTIYDYWGQGTQVTVSS”, the “polyreactivity (PSR sort gate)” value is reported as “low polyreactivity”.
As for “QVQLVESGGGLVQAGGSLRLSCAASGSIILAYAMGWYRQAPGKERELVAAITGSGGRTYADSVKGRFTISRDNAKNTVYLEMNSLKPEVTAVYYFAAYYYGNWQGYYWGQGTQVIVSS”, the “polyreactivity (PSR sort gate)” value is given as “low polyreactivity”.
On to “QVQLVESGGGLVQAGGSLRLSCAASGSIIPLYAMGWYRQAPGKERELVAAISRRGGSTYYADSVKGRFTISRDNAKNTVYLQMNSLKPEDTAVYYCAVDTPSPSRGPRFNYWGQGTQVTVSS”, for which the “polyreactivity (PSR sort gate)” value was “high polyreactivity”.
On to “QVQLVESGGGLVQAGGSLRLSCAASGSIIPLYAMGWYRQAPGKERELVATINRRTGSTYADSVKGRFTISRDNAKNTVYLQMNSLKPEDTAVYYCNAADNYVRFYKTRIYNYWGQGTQVTVSS”, for which the “polyreactivity (PSR sort gate)” value was “high polyreactivity”.
As for “QVQLVESGGGLVQAGGSLRLSCAASGSIIPYYAMGWYRQAPGKERELVAAISNSGGRTYYADSVKGRFTISRDNAKNTVYLQMNSLKPEDTAVYYCNAVPFYSKYDYWGQGTQVTVSS”, the entry is “high polyreactivity”; as for “QVQLVESGGGLVQAGGSLRLSCAASGSIIRGNAMGWYRQAPGKERELVAAISKRGGSTYYADSVKGRFTISRDNAKNTVYLQMNSLKPEDTAVYYCASDLPAALGFDYWGQGTQVTVSS”, “high polyreactivity”; as for “QVQLVESGGGLVQAGGSLRLSCAASGSIIRGYAIGWFRPAPGKERELVAAITSSGGSTYYADSVKGRFTISRDNAKNTVYLQMNSLKPEETAVYYCTKYRYSYKYNYWGQGTQVTVSS”, “high polyreactivity”.
The same measure for “QVQLVESGGGLVQAGGSLRLSCAASGSIIRHNVMVWYRQAPGKERELVAAISGGGGRTYYADSVKGRFTISRDNAKNTVSLQMNRLKPEDTAVYYCNAYVGLSEGDYWGQGTQVTVSS”: “high polyreactivity”; for “QVQLVESGGGLVQAGGSLRLSCAASGSIIRNAMGWYRQAPGKERELVAAINWSGGSTYYADSVKGRFTISRDNAKNTVYLQMNSLKPEDTAVYYCNKVRGTVHATRRNGDYWGQGTQVTVSS”: “high polyreactivity”.
